Experiment [1] addresses T1, Recombinant Human EGF R/ErbB1 (human, UniProt P00533 25-645).
T1 construct: Bought reagent
The experiment is described as follows: SPR (Biacore). The procedure:
(§1) The BIACORE assay (Biacore, Inc, Piscataway, N.J.) determines the affinity of antibodies or DVD-Ig with kinetic measurements of on-rate and off-rate constants. Binding of antibodies or DVD-Ig to a target antigen (for example, a purified recombinant target antigen) was determined by surface plasmon resonance-based measurements with a Biacore® 1000 or 3000 instrument (Biacore® AB, Uppsala, Sweden) using running HBS-EP (10 mM HEPES [pH 7.4], 150 mM NaCl, 3 mM EDTA, and 0.005% surfactant P20) at 25° C. All chemicals were obtained from Biacore® AB (Uppsala, Sweden) or otherwise from a different source as described in the text. For example, approximately 5000 RU of goat anti-mouse IgG, (Fcγ), fragment specific polyclonal antibody (Pierce Biotechnology Inc, Rockford, Ill.) diluted in 10 mM sodium acetate (pH 4.5) was directly immobilized across a CM5 research grade biosensor chip using a standard amine coupling kit according to manufacturer's instructions and procedures at 25 μg/ml. Unreacted moieties on the biosensor surface were blocked with ethanolamine. Modified carboxymethyl dextran surface in flowcell 2 and 4 was used as a reaction surface. Unmodified carboxymethyl dextran without goat anti-mouse IgG in flow cell 1 and 3 was used as the reference surface. For kinetic analysis, rate equations derived from the 1:1 Langmuir binding model were fitted simultaneously to association and dissociation phases of all eight injections (using global fit analysis) with the use of Biaevaluation 4.0.1 software. Purified antibodies or DVD-Ig were diluted in HEPES-buffered saline for capture across goat anti-mouse IgG specific reaction surfaces. Antibodies or DVD-Ig to be captured as a ligand (25 μg/ml) were injected over reaction matrices at a flow rate of 5 μl/min. The association and dissociation rate constants, kₒₙ (M⁻¹s⁻¹) and koff (s⁻¹) were determined under a continuous flow rate of 25 μl/min. Rate constants were derived by making kinetic binding measurements at different antigen concentrations ranging from 10-200 nM. The equilibrium dissociation constant (M) of the reaction between antibodies or DVD-Igs and the target antigen was then calculated from the kinetic rate constants by the following formula: KD=koff/kₒₙ. Binding was recorded as a function of time and kinetic rate constants were calculated.
A general note: SPR reads the build-up and loss of mass on a sensor chip optically.

For experiment [2], the target named is Recombinant Human β-NGF (human, UniProt P01138 122-241). Kind of experiment: cell-based or functional assay.
Experiment [3] addresses T2, Recombinant Human ErbB3/HER3 Fc Chimera (human, UniProt P21860 20-643).
T2 construct: Bought reagent; not shown: IgG Fc part of the bought chimera
The experiment is described as follows: SPR (Biacore). The protocol: as §1

The Kd is the free concentration of one partner at which half of the binding sites on the other are occupied at equilibrium, for simple one-to-one binding. As a reminder, the koff is the first-order rate constant of dissociation. By kon is commonly meant the rate constant with which the complex forms.

B1: DVD1369 (bispecific antibody, human IgG1, kappa)
heavy: not shown
light: DIQMTQSPSSLSASVGDRVTITCRASEDIYNALAWYQQKPGKAPKLLIYNTDTLHTGVPSRFSGSGSGTDYTLTISSLQPEDFATYFCQHYFHYPRTFGQGTKVEIKRTVAAPDIQMTQSPSSMSVSVGDRVTITCHSSQDINSNIGWLQQKPGKSFKGLIYHGTNLDDGVPSRFSGSGSGTDYTLTISSLQPEDFATYYCVQYAQFPWTFGGGTKLEIKRTVAAPSVFIFPPSDEQLKSGTASVVCLLNNFYPREAKVQWKVDNALQSGNSQESVTEQDSKDSTYSLSSTLTLSKADYEKHKVYACEVTHQGLSSPVTKSFNRGEC
notes: DVD-Ig; also called DVD1369H; DVD1369L
Take B1: in experiment [1], the Kd was < 2.4 pM, the koff is < 1e-06 s⁻¹ and the kon worked out at 410000 M⁻¹ s⁻¹. Besides, in experiment [2], the “N-Terminal VD NGF Inhibition Assay EC50” value turned out to be 5.6 pM.

B2: DVD1314 (bispecific antibody, human IgG1, kappa)
heavy: not shown
light: QSVLTQPPSVSAAPGQKVTISCSGSSSNIENNHVSWYQQLPGTAPKLLIYDNNKRPSGIPDRFSGSKSGTSATLGITGLQTGDEADYYCETWDTSLSAGRVFGGGTKLTVLGQPKAAPDIQMTQSPSSLSASVGDRVTITCRASEDIYNALAWYQQKPGKAPKLLIYNTDTLHTGVPSRFSGSGSGTDYTLTISSLQPEDFATYFCQHYFHYPRTFGQGTKVEIKRTVAAPSVFIFPPSDEQLKSGTASVVCLLNNFYPREAKVQWKVDNALQSGNSQESVTEQDSKDSTYSLSSTLTLSKADYEKHKVYACEVTHQGLSSPVTKSFNRGEC
As to B2, the “C-Terminal VD NGF Inhibition Assay EC50” value in experiment [2] worked out at 0.3 pM.

B3: DVD1316 (bispecific antibody, human IgG1, kappa)
heavy: not shown
light: DVVMTQSPLSLPVTPGEPASISCRSSQSLLHSNGFNYVDWYLQKPGQSPHLLIYFGSYRASGVPDRFSGSGSGTDFTLKISRVEAEDVGVYYCMQALQTPPWTFGQGTKVEIRRTVAAPDIQMTQSPSSLSASVGDRVTITCRASEDIYNALAWYQQKPGKAPKLLIYNTDTLHTGVPSRFSGSGSGTDYTLTISSLQPEDFATYFCQHYFHYPRTFGQGTKVEIKRTVAAPSVFIFPPSDEQLKSGTASVVCLLNNFYPREAKVQWKVDNALQSGNSQESVTEQDSKDSTYSLSSTLTLSKADYEKHKVYACEVTHQGLSSPVTKSFNRGEC
As to B3, the “C-Terminal VD NGF Inhibition Assay EC50” value in experiment [2] was found to be 874 pM.

B4: AB063 (antibody, V domains shown)
VH: EVQLVESGGGLVQPGGSLRLSCAASGFTFSIYSMNWVRQAPGKGLEWVSYISSSSSTIYYADSVKGRFTISRDNAKNSLYLQMNSLRDEDTAVYYCARDRGDFDAFDIWGQGTMVTVSS
VL: DIQMTQSPSSLSASVGDRVTITCQASQDITNYLNWYQQKPGKAPKLLIYDASNLETGVPSRFSGSGSGTDFTFTISSLQPEDIATYNCQQCENFPITFGQGTRLEIKR
notes: Parent antibody; also called AB063VH
On to B4, for which, in experiment [3], the Kd turned out to be 1360 pM, the koff was determined as 0.000117 s⁻¹ and the association rate constant (kon) was determined as 86600 M⁻¹ s⁻¹.

B5: DVD1335 (bispecific antibody, human IgG1, kappa)
heavy: not shown
light: DIQMTQSPSSLSASVGDRVTITCRASEDIYNALAWYQQKPGKAPKLLIYNTDTLHTGVPSRFSGSGSGTDYTLTISSLQPEDFATYFCQHYFHYPRTFGQGTKVEIKRTVAAPQIVLSQSPAILSPSPGEKVTMTCRASSSVSYIHWFQQKPGSSPKPWIYATSNLASGVPVRFSGSGSGTSYSLTISRVEAEDAATYYCQQWTSNPPTFGGGTKLEIKRTVAAPSVFIFPPSDEQLKSGTASVVCLLNNFYPREAKVQWKVDNALQSGNSQESVTEQDSKDSTYSLSSTLTLSKADYEKHKVYACEVTHQGLSSPVTKSFNRGEC
Take B5: the “N-Terminal VD NGF Inhibition Assay EC50” value in experiment [2] came out at 0.3 pM.

B6: DVD1333 (bispecific antibody, human IgG1, kappa)
heavy: not shown
light: DIQMTQSPSSLSASVGDRVTITCRASEDIYNALAWYQQKPGKAPKLLIYNTDTLHTGVPSRFSGSGSGTDYTLTISSLQPEDFATYFCQHYFHYPRTFGQGTKVEIKRTVAAPQAVLTQPSSLSAPPGASASLTCTLRSGFNVDSYRISWYQQKPGSPPQYLLRYKSDSDKQQGSGVPSRFSGSKDASANAGILLISGLQSEDEADYYCMIWHSSAWVFGGGTKLTVLRTVAAPSVFIFPPSDEQLKSGTASVVCLLNNFYPREAKVQWKVDNALQSGNSQESVTEQDSKDSTYSLSSTLTLSKADYEKHKVYACEVTHQGLSSPVTKSFNRGEC
For the molecule B6, in experiment [2], the “N-Terminal VD NGF Inhibition Assay EC50” value came to 0.6 pM.

B7: DVD1362 (bispecific antibody, human IgG1, kappa)
heavy: not shown
light: QSALTQPASVSGSPGQSITISCTGTSSDVGSYNVVSWYQQHPGKAPKLIIYEVSQRPSGVSNRFSGSKSGNTASLTISGLQTEDEADYYCCSYAGSSIFVIFGGGTKVTVLGQPKAAPDIQMTQSPSSLSASVGDRVTITCRASEDIYNALAWYQQKPGKAPKLLIYNTDTLHTGVPSRFSGSGSGTDYTLTISSLQPEDFATYFCQHYFHYPRTFGQGTKVEIKRTVAAPSVFIFPPSDEQLKSGTASVVCLLNNFYPREAKVQWKVDNALQSGNSQESVTEQDSKDSTYSLSSTLTLSKADYEKHKVYACEVTHQGLSSPVTKSFNRGEC
As for B7, in experiment [2], the “C-Terminal VD NGF Inhibition Assay EC50” value amounted to 2.5 pM.

B8: DVD1315 (bispecific antibody, human IgG1, kappa)
heavy: not shown
light: DIQMTQSPSSLSASVGDRVTITCRASEDIYNALAWYQQKPGKAPKLLIYNTDTLHTGVPSRFSGSGSGTDYTLTISSLQPEDFATYFCQHYFHYPRTFGQGTKVEIKRTVAAPDVVMTQSPLSLPVTPGEPASISCRSSQSLLHSNGFNYVDWYLQKPGQSPHLLIYFGSYRASGVPDRFSGSGSGTDFTLKISRVEAEDVGVYYCMQALQTPPWTFGQGTKVEIRRTVAAPSVFIFPPSDEQLKSGTASVVCLLNNFYPREAKVQWKVDNALQSGNSQESVTEQDSKDSTYSLSSTLTLSKADYEKHKVYACEVTHQGLSSPVTKSFNRGEC
B8: in experiment [2], the “N-Terminal VD NGF Inhibition Assay EC50” value worked out at 2.2 pM.

B9: DVD1370 (bispecific antibody, human IgG1, kappa)
heavy: not shown
light: DIQMTQSPSSMSVSVGDRVTITCHSSQDINSNIGWLQQKPGKSFKGLIYHGTNLDDGVPSRFSGSGSGTDYTLTISSLQPEDFATYYCVQYAQFPWTFGGGTKLEIKRTVAAPDIQMTQSPSSLSASVGDRVTITCRASEDIYNALAWYQQKPGKAPKLLIYNTDTLHTGVPSRFSGSGSGTDYTLTISSLQPEDFATYFCQHYFHYPRTFGQGTKVEIKRTVAAPSVFIFPPSDEQLKSGTASVVCLLNNFYPREAKVQWKVDNALQSGNSQESVTEQDSKDSTYSLSSTLTLSKADYEKHKVYACEVTHQGLSSPVTKSFNRGEC
notes: DVD-Ig; also called DVD1370H; DVD1370L
Consider B9, for which, in experiment [1], the Kd is < 9.1 pM, the off-rate (koff) was < 1e-06 s⁻¹ and the association rate constant (kon) was found to be 110000 M⁻¹ s⁻¹. Further, the “C-Terminal VD NGF Inhibition Assay EC50” value in experiment [2] is 5960 pM.

B10: DVD1320 (bispecific antibody, human IgG1, kappa)
heavy: not shown
light: DIQMTQSPSSLSASVGDRVTITCQASQDITNYLNWYQQKPGKAPKLLIYDASNLETGVPSRFSGSGSGTDFTFTISSLQPEDIATYNCQQCENFPITFGQGTRLEIKRTVAAPDIQMTQSPSSLSASVGDRVTITCRASEDIYNALAWYQQKPGKAPKLLIYNTDTLHTGVPSRFSGSGSGTDYTLTISSLQPEDFATYFCQHYFHYPRTFGQGTKVEIKRTVAAPSVFIFPPSDEQLKSGTASVVCLLNNFYPREAKVQWKVDNALQSGNSQESVTEQDSKDSTYSLSSTLTLSKADYEKHKVYACEVTHQGLSSPVTKSFNRGEC
notes: DVD-Ig; also called DVD1320H; DVD1320L
In the case of B10, in experiment [3], the Kd was < 4.2 pM, the off-rate (koff) is < 1e-06 s⁻¹ and the kon was 240000 M⁻¹ s⁻¹.

B11: DVD1338 (bispecific antibody, human IgG1, kappa)
heavy: not shown
light: DIQMTQSPSSLSASVGDRVTITCQASQDISNYLNWYQQKPGKAPKLLIYDASNLETGVPSRFSGSGSGTDFTFTISSLQPEDIATYFCQHFDHLPLAFGGGTKVEIKRTVAAPDIQMTQSPSSLSASVGDRVTITCRASEDIYNALAWYQQKPGKAPKLLIYNTDTLHTGVPSRFSGSGSGTDYTLTISSLQPEDFATYFCQHYFHYPRTFGQGTKVEIKRTVAAPSVFIFPPSDEQLKSGTASVVCLLNNFYPREAKVQWKVDNALQSGNSQESVTEQDSKDSTYSLSSTLTLSKADYEKHKVYACEVTHQGLSSPVTKSFNRGEC
On to B11, for which the “C-Terminal VD NGF Inhibition Assay EC50” value in experiment [2] was 1270 pM.

B12: DVD1313 (bispecific antibody, human IgG1, lambda)
heavy: not shown
light: DIQMTQSPSSLSASVGDRVTITCRASEDIYNALAWYQQKPGKAPKLLIYNTDTLHTGVPSRFSGSGSGTDYTLTISSLQPEDFATYFCQHYFHYPRTFGQGTKVEIKRTVAAPQSVLTQPPSVSAAPGQKVTISCSGSSSNIENNHVSWYQQLPGTAPKLLIYDNNKRPSGIPDRFSGSKSGTSATLGITGLQTGDEADYYCETWDTSLSAGRVFGGGTKLTVLGQPKAAPSVTLFPPSSEELQANKATLVCLISDFYPGAVTVAWKADSSPVKAGVETTTPSKQSNNKYAASSYLSLTPEQWKSHRSYSCQVTHEGSTVEKTVAPTECS
For the molecule B12, the “N-Terminal VD NGF Inhibition Assay EC50” value in experiment [2] was 0.9 pM.

B13: DVD1318 (bispecific antibody, human IgG1, kappa)
heavy: not shown
light: DIEMTQSPDSLAVSLGERATINCRSSQSVLYSSSNRNYLAWYQQNPGQPPKLLIYWASTRESGVPDRFSGSGSGTDFTLTISSLQAEDVAVYYCQQYYSTPRTFGQGTKVEIKRTVAAPDIQMTQSPSSLSASVGDRVTITCRASEDIYNALAWYQQKPGKAPKLLIYNTDTLHTGVPSRFSGSGSGTDYTLTISSLQPEDFATYFCQHYFHYPRTFGQGTKVEIKRTVAAPSVFIFPPSDEQLKSGTASVVCLLNNFYPREAKVQWKVDNALQSGNSQESVTEQDSKDSTYSLSSTLTLSKADYEKHKVYACEVTHQGLSSPVTKSFNRGEC
On to B13, for which, in experiment [2], the “C-Terminal VD NGF Inhibition Assay EC50” value turned out to be 53.4 pM.
